Source: patent US20190202907A1 (180 THERAPEUTICS, published 2019)

T1: human ST2L (human, UniProt Q01638 19-328, limits assumed)
T1 construct: also called IL-1R4; IL-33Ra
T1 sequence (looked up): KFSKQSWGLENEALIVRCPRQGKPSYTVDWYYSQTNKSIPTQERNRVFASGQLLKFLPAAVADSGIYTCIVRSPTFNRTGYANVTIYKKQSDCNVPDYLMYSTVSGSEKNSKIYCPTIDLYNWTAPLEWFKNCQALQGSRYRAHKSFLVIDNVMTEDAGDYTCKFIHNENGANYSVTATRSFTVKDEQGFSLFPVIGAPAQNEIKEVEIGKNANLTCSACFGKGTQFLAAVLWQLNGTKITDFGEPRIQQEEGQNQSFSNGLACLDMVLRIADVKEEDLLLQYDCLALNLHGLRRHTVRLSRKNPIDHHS


How the values were obtained:
cyno ST2L (cyno) = assay: affinity table; method not stated
human ST2L = molecular target: T1, human ST2L; assay: affinity table; method not stated

Row | Binder | Kd (cyno ST2L (cyno)) | koff (cyno ST2L (cyno)) | kon (cyno ST2L (cyno)) | Kd (human ST2L) | koff (human ST2L) | kon (human ST2L)
1 | STLM124 (antibody, from another filing, V domains shown) VH: EVQLLESGGGLVQPGGSLRLSCAASGFTFSIYDMIWVRQAPGKGLEWVSTIKGEGGGTYYADSVKGRFTISRDNSKNTLYLQMNSLRAEDTAVYYCARDPWSTEGSFFVLDYWGQGTLVTVSS VL: EIVLTQSPATLSLSPGERATLSCRASQSVDDDLAWYQQKPGQAPRLLIYDASNRATGIPARFSGSGSGTDFTLTISSLEPEDFAVYYCQQYITAPLTFGQGTKVEIK | 0.03 nM | 0.00257 s⁻¹ | 8.71e+07 M⁻¹ s⁻¹ | 0.046 nM | 0.000756 s⁻¹ | 1.65e+07 M⁻¹ s⁻¹
2 | STLM208 (antibody, V domains shown) VH: EVQLLESGGGLVQPGGSLRLSCAASGFTFSIYDMIWVRQAPGKGLEWVSSIRGEGGGTYYADSVKGRFTISRDNSKNTLYLQMNSLRAEDTAVYYCARDPWSTEGSFFVLDYWGQGTLVTVSS VL: EIVLTQSPATLSLSPGERATLSCRASQSVDDDLAWYQQKPGQAPRLLIYDASNRATGIPARFSGSGSGTDFTLTISSLEPEDFAVYYCQQYITAPLTFGQGTKVEIK | 0.005 nM | 7.02e-05 s⁻¹ | 1.39e+07 M⁻¹ s⁻¹ | 0.011 nM | 6.76e-05 s⁻¹ | 5.97e+06 M⁻¹ s⁻¹
3 | STLM209 (antibody, from another filing, V domains shown) VH: EVQLLESGGGLVQPGGSLRLSCAASGFTFSIYDMIWVRQAPGKGLEWVSTIRGEGGGTSYADSVKGRFTISRDNSKNTLYLQMNSLRAEDTAVYYCARDPWSTEGSFFVLDYWGQGTLVTVSS VL: EIVLTQSPATLSLSPGERATLSCRASQSVDDDLAWYQQKPGQAPRLLIYDASNRATGIPARFSGSGSGTDFTLTISSLEPEDFAVYYCQQYITAPLTFGQGTKVEIK | 0.009 nM | 0.000311 s⁻¹ | 3.39e+07 M⁻¹ s⁻¹ | 0.026 nM | 0.00017 s⁻¹ | 6.59e+06 M⁻¹ s⁻¹
4 | STLM210 (antibody, from another filing, V domains shown) VH: EVQLLESGGGLVQPGGSLRLSCAASGFTFSDDAMIWVRQAPGKGLEWVSYIGGNGGTTYYADSVKGRFTISRDNSKNTLYLQMNSLRAEDTAVYYCARDPWSTEGSFFVLDYWGQGTLVTVSS VL: EIVLTQSPATLSLSPGERATLSCRASQSVDDDLAWYQQKPGQAPRLLIYDASNRATGIPARFSGSGSGTDFTLTISSLEPEDFAVYYCQQYNDAITFGQGTKVEIK | 0.009 nM | 0.000528 s⁻¹ | 5.7e+07 M⁻¹ s⁻¹ | 0.019 nM | 0.000227 s⁻¹ | 1.21e+07 M⁻¹ s⁻¹
5 | STLM212 (antibody, from another filing, V domains shown) VH: EVQLLESGGGLVQPGGSLRLSCAASGFTFSVYDMIWVRQAPGKGLEWVSTIRGEGGGTYYADSVKGRFTISRDNSKNTLYLQMNSLRAEDTAVYYCARDPWSTEGSFFVLDYWGQGTLVTVSS VL: EIVLTQSPATLSLSPGERATLSCRASQSVDDDLAWYQQKPGQAPRLLIYDASNRATGIPARFSGSGSGTDFTLTISSLEPEDFAVYYCQQYNDAITFGQGTKVEIK | 0.024 nM | 0.000346 s⁻¹ | 1.43e+07 M⁻¹ s⁻¹ | 0.032 nM | 0.000398 s⁻¹ | 1.24e+07 M⁻¹ s⁻¹

Continued by falling Kd (cyno ST2L (cyno)), values first:

Row | Kd (cyno ST2L (cyno)) | koff (cyno ST2L (cyno)) | kon (cyno ST2L (cyno)) | Kd (human ST2L) | koff (human ST2L) | kon (human ST2L) | Binder
6 | 0.037 nM | 0.000264 s⁻¹ | 7.2e+06 M⁻¹ s⁻¹ | 0.033 nM | 0.000299 s⁻¹ | 9.16e+06 M⁻¹ s⁻¹ | STLM214 (antibody, from another filing, V domains shown) VH: EVQLLESGGGLVQPGGSLRLSCAASGFTFSSYDMFWVRQAPGKGLEWVSDIKGEGGRTAYADSVKGRFTISRDNSKNTLYLQMNSLRAEDTAVYYCARDPWSTEGSFFVLDYWGQGTLVTVSS VL: EIVLTQSPATLSLSPGERATLSCRASQSVDDDLAWYQQKPGQAPRLLIYDASNRATGIPARFSGSGSGTDFTLTISSLEPEDFAVYYCQQYIDAPLTFGQGTKVEIK
7 | 0.021 nM | 0.00207 s⁻¹ | 1e+08 M⁻¹ s⁻¹ | 0.048 nM | 0.000395 s⁻¹ | 8.33e+06 M⁻¹ s⁻¹ | STLM207 (antibody, from another filing, V domains shown) VH: EVQLLESGGGLVQPGGSLRLSCAASGFTFSSYDMIWVRQAPGKGLEWVSTIRGEGGTTAYADSVKGRFTISRDNSKNTLYLQMNSLRAEDTAVYYCARDPWSTEGSFFVLDYWGQGTLVTVSS VL: EIVLTQSPATLSLSPGERATLSCRASQSVDDDLAWYQQKPGQAPRLLIYDASNRATGIPARFSGSGSGTDFTLTISSLEPEDFAVYYCQQYITAPLTFGQGTKVEIK
8 | 0.014 nM | 0.00139 s⁻¹ | 1e+08 M⁻¹ s⁻¹ | 0.029 nM | 0.000483 s⁻¹ | 1.7e+07 M⁻¹ s⁻¹ | STLM211 (antibody, from another filing, V domains shown) VH: EVQLLESGGGLVQPGGSLRLSCAASGFTFSGYAMIWVRQAPGKGLEWVSYIEGEGGETYYADSVKGRFTISRDNSKNTLYLQMNSLRAEDTAVYYCARDPWSTEGSFFVLDYWGQGTLVTVSS VL: EIVLTQSPATLSLSPGERATLSCRASQSVDDDLAWYQQKPGQAPRLLIYDASNRATGIPARFSGSGSGTDFTLTISSLEPEDFAVYYCQQYNDAITFGQGTKVEIK
9 | 0.01 nM | 0.000369 s⁻¹ | 3.54e+07 M⁻¹ s⁻¹ | 0.025 nM | 0.000172 s⁻¹ | 6.91e+06 M⁻¹ s⁻¹ | STLM215 (antibody, from another filing, V domains shown) VH: EVQLLESGGGLVQPGGSLRLSCAASGFTFSSYDMFWVRQAPGKGLEWVSAIAGEGGRTYYADSVKGRFTISRDNSKNTLYLQMNSLRAEDTAVYYCARDPWSTEGSFFVLDYWGQGTLVTVSS VL: EIVLTQSPATLSLSPGERATLSCRASQSVDDDLAWYQQKPGQAPRLLIYDASNRATGIPARFSGSGSGTDFTLTISSLEPEDFAVYYCQQYIGAPITFGQGTKVEIK
10 | 0.008 nM | 0.000124 s⁻¹ | 1.64e+07 M⁻¹ s⁻¹ | 0.014 nM | 0.000108 s⁻¹ | 7.54e+06 M⁻¹ s⁻¹ | STLM213 (antibody, from another filing, V domains shown) VH: EVQLLESGGGLVQPGGSLRLSCAASGFTFSFYDMIWVRQAPGKGLEWVSTIRGEGGDTNYADSVKGRFTISRDNSKNTLYLQMNSLRAEDTAVYYCARDPWSTEGSFFVLDYWGQGTLVTVSS VL: EIVLTQSPATLSLSPGERATLSCRASQSVDDDLAWYQQKPGQAPRLLIYDASNRATGIPARFSGSGSGTDFTLTISSLEPEDFAVYYCQQYIDAPLTFGQGTKVEIK
11 | 0.006 nM | 0.000583 s⁻¹ | 9.4e+07 M⁻¹ s⁻¹ | 0.025 nM | 0.00016 s⁻¹ | 6.39e+06 M⁻¹ s⁻¹ | STLM206 (antibody, from another filing, V domains shown) VH: EVQLLESGGGLVQPGGSLRLSCAASGFTFSIYDMIWVRQAPGKGLEWVSTIRGEGGSTYYADSVKGRFTISRDNSKNTLYLQMNSLRAEDTAVYYCARDPWSTEGSFFVLDYWGQGTLVTVSS VL: EIVLTQSPATLSLSPGERATLSCRASQSVDDDLAWYQQKPGQAPRLLIYDASNRATGIPARFSGSGSGTDFTLTISSLEPEDFAVYYCQQYITAPLTFGQGTKVEIK
12 | 0.005 nM | 0.000519 s⁻¹ | 1e+08 M⁻¹ s⁻¹ | 0.015 nM | 0.000208 s⁻¹ | 1.37e+07 M⁻¹ s⁻¹ | STLM123 (antibody, from another filing, V domains shown) VH: EVQLLESGGGLVQPGGSLRLSCAASGFTFSDYAMFWVRQAPGKGLEWVSAIEGEGGETNYADSVKGRFTISRDNSKNTLYLQMNSLRAEDTAVYYCARDPWSTEGSFFVLDYWGQGTLVTVSS VL: EIVLTQSPATLSLSPGERATLSCRASQSVDDDLAWYQQKPGQAPRLLIYDASNRATGIPARFSGSGSGTDFTLTISSLEPEDFAVYYCQQYITAPLTFGQGTKVEIK
